Holding throughout (assay): cell-based or functional assay
Experiment [1] deals with glucagon receptor (UniProt P47871).
For experiment [2], the target named is T1, GLP-1 receptor (Homo sapiens, UniProt P43220).
Experiment [3] has as its target glucagon receptor (UniProt P47871). The source holds these as a separate data set.
For experiment [4], the target named is T1, GLP-1 receptor. This is another data set of the same source.

Like-named read-outs stand apart in the source and are kept apart here.

Chain of glucagon receptor (P47871 26-477 limits assumed): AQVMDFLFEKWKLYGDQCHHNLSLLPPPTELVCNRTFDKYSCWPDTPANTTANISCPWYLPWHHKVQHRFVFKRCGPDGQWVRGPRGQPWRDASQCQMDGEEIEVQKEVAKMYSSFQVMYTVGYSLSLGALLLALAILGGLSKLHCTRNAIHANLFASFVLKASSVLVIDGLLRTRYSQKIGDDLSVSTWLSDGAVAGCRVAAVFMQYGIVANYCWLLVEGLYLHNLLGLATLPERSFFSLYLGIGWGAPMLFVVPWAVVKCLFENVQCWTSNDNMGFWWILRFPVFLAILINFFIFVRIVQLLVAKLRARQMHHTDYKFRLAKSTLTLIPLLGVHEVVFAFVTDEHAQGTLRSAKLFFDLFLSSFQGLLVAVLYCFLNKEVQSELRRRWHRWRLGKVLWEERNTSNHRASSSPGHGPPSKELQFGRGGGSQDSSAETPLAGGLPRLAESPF
T1 sequence (P43220 24-463 limits assumed): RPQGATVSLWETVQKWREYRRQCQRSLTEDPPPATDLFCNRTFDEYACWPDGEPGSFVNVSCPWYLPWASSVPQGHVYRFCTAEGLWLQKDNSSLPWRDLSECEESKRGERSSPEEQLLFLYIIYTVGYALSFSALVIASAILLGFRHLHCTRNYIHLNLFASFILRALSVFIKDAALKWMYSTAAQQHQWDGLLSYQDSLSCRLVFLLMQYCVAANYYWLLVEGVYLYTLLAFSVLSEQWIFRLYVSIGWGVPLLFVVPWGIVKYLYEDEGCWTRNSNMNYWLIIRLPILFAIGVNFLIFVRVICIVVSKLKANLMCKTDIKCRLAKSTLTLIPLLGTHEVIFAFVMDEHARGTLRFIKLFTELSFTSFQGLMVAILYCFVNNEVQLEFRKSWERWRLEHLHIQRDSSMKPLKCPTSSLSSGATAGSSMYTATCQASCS

Substance “Glucagon (6-CEX) analog D9, K12E16(Lactam) (peptide)” registered a Glucagon IC50 in experiment [1] of 0.828 µM. The GLP-1 EC50 is 0.018 µM in experiment [2] and 0.119 µM in experiment [4]. This substance also registered a Glu IC50 in experiment [3] of 0.828 µM.

Source of the values: patent publication US20110065633A1, “ESTER-BASED PEPTIDE PRODRUGS” (INDIANA UNIVERSITY RESEARCH AND TECHNOLOGY CORPORATION, priority 2008, published 2011).
